Test results taken from PMC7371201.

Experiments:
[1] = test system: NbGlk1(83-402) (Nicotiana benthamiana); experiment: fluorescence anisotropy; details: DNA annealed in 150 mM NaCl, 15 mM Na citrate, binding buffer, pH and temperature not given in the material
[2] = target: NbDBCP-T (amino acids 1–414 of NbDBCP) (Nicotiana benthamiana); experiment: SEC; NbDBCP-T alone; approximate molecular weight by gel filtration chromatography
[3] = target: NbGlk1(83–402) (N. benthamiana (from the prefix Nb)); experiment: SEC; purified recombinant proteins run alone and after co-incubation; peak fractions visualised by SDS-PAGE

| stoichiometry N [2] | left:right ratio of NbDBCP within the 12-mL elution volume (densitometry; 1.37 for NbDBCP-T alone) [3] | Substance | Kd ([1]; NbGlk1 alone) | Kd ([1]; with NbDBCP-T (1-414)) |
| --- | --- | --- | --- | --- |
| – | – | CGGATATCCACGGATATCCACGGATATCCACGGATATCCACGGATATCCC (double strand) [FA-5/FA-6 concatenated GGATATCC GLK site duplex] | 110 nM | 160 nM |
| 2 | 1.6 | NbDBCP-T (amino acids 1–414 of NbDBCP) (domain or fragment) | – | – |
